Numbering of substitutions follows the chain as printed.

Experimental findings from patent publication US20250304707A1 are described below.

Sequences and labels used below:
T1: human APRIL/TNFSF13 (human), O75888
T1 chain: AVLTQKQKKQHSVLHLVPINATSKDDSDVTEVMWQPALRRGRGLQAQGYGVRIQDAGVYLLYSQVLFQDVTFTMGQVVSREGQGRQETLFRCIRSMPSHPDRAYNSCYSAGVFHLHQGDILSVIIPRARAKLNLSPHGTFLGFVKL

B1: human BCMA (soluble analyte of Examples 8 and 14), Q02223 1-54 (receptor, UniProt Q02223 1-54, looked up)
chain: MLQMAGQCSQNEYFDSLLHACIPCQLRCSSNTPPLTCQRYCNASVTNSVKGTNA
B2: 01-024 (scFv) (scFv, part only; not given: linker, domain order, Myc-His tags, V domains shown, not shown: another chain or arm of the molecule; small tags and cut ends)
VH: EVQLVQSGGGLVQSGGSLRVSCAASGFTFSSGLMSWVRQAPGKGFEWVSCYNGGSDRAGYTDSVKGRFTISRDNAKNTLYLQMNSLKPEDTAVYYCARYIANSGTYYWDYWGQGTTVTVSS
VL: QAVLTQPPSASGTPGQRVSISCSGGISNIGSNIVNWYQHLPGTAPKLLIYSGNQRPSGVPDRFSGSKSGTSASLAISGLQSEDEADYYCSSWDSDLRNWVFGGGTKLTVL
B3: 01-030 (scFv) (scFv, part only; not given: linker, domain order, Myc-His tags, V domains shown, not shown: another chain or arm of the molecule; small tags and cut ends)
VH: B2 VH with S14P, T28S, C50G, Y60F, T61A, K65E, T116L
VL: QSALTQPPSASGTPGQRVTISCSGSISNIGSNTVNWYQHLPGTAPKLLIYNHNQRPSGVPDRFSGSTSGTSASLAISGLQSEDEADYFCATWDDSLSAWLFGGGTKLTVL
B4: 01-026 (scFv) (scFv, part only; not given: linker, domain order, Myc-His tags, V domains shown, not shown: another chain or arm of the molecule; small tags and cut ends)
VH: B2 VH with C50G
VL: QSVLTQPPSVSGAPGQRVTISCTGSSSNIGAGYDVHWYQQLPGTAPKLVIYGNTNRPSGVPDRFSGSKSGTSASLAISGLQSEDEADYYCAAWDDSLNGWVFGGGTKLTVL
B5: 01-025 (scFv) (scFv, part only; not given: linker, domain order, Myc-His tags, V domains shown, not shown: another chain or arm of the molecule; small tags and cut ends)
VH: B2 VH with C50G
VL: QPVLTQPPSVSEAPRQRVTISCSGSSSNIGNNAVNWYQQLPGKAPKLLIYSTNQRPSGVPDRFSGSKSGTSASLAISGLQSEDEADYYCAAWDDRVSAWLFGGGTKLTVL
B6: 01-027 (scFv) (scFv, part only; not given: linker, domain order, Myc-His tags, V domains shown, not shown: another chain or arm of the molecule; small tags and cut ends)
VH: B2 VH with C50G
VL: B2 VL

One assay concerns the target T1, human APRIL/TNFSF13 (human), O75888. Briefly: BLI (Octet RED384), APRIL/TNFSF13 on AR2G sensors, 71 nM human BCMA analyte, no antibody. Conditions: remark: other sources report otherwise. A general note: BLI is a label-free optical method that tracks binding on a fibre tip over time.
With B1, the Response is 0.659 nm.

A further assay has as its target biotinylated human BCMA (human) (UniProt Q02223). Put plainly: BLI (Octet RED384), biotinylated human BCMA on SAX sensors, scFv 1200 nM analyte, 1:1 model.
Conditions: not given
For B2, the dissociation constant (Kd) is 1.5 nM, the Response amounted to 0.174 nm, the koff stood at 0.00057 s⁻¹ and the on-rate constant (kon) was 380000 M⁻¹ s⁻¹.

B3 registered an equilibrium dissociation constant (Kd) of 8.42 nM, a Response of 0.172 nm, a koff of 0.000939 s⁻¹ and a kon of 112000 M⁻¹ s⁻¹.

B4 yielded a Kd of 59.6 nM, a Response of 0.115 nm, an off-rate constant (koff) of 0.00248 s⁻¹ and an on-rate constant (kon) of 41700 M⁻¹ s⁻¹.

B5: the dissociation constant Kd turned out to be 15.5 nM, the Response came out at 0.183 nm, the koff turned out to be 0.00128 s⁻¹ and the on-rate constant (kon) is 82600 M⁻¹ s⁻¹.

As for B6, the equilibrium dissociation constant (Kd) stood at 3.38 nM, the Response came to 0.171 nm, the off-rate (koff) worked out at 0.00096 s⁻¹ and the association rate constant (kon) was determined as 284000 M⁻¹ s⁻¹.

Broadly, the Kd is the free concentration of one partner at which half of the binding sites on the other are occupied at equilibrium, for simple one-to-one binding. The low end stands for a tighter complex, the high end for a looser complex. What is called koff is the rate constant with which the complex falls apart. The kon is the rate constant with which the complex forms. Higher therefore signals fast association.
